Results reported in doi:10.1101/299487 (bioRxiv, 2018).
Read-outs that look alike come from different tables or passages of the source.

Legend:
[1] = target: the molecule itself; test: cryo-EM structure
[2] = target: the molecule itself; test: cryo-EM structure; remark: listed apart in the source

Protein	stoichiometry N [1]	stoichiometry N [2]
Dam1C/DASH heterodecamer (recombinant) (complex, yeast (budding yeast)) chain 1: MSEDKAKLGTTRSATEYRLSIGSAPTSRRSSMGESSSLMKFADQEGLTSSVGEYNENTIQQLLLPKIRELSDSIITLDSNFTRLNFIHESLADLNESLGSLLYGIMSNSWCVEFSQAPHDIQDDLIAIKQLKSLEDEKNNLVMELSNMERGIKRKKDEQGENDLAKASQNKQFNQPLFPSSQVRKYRSYDNRDKRKPSKIGNNLQVENEEDYEDDTSSEASFVLNPTNIGMSKSSQGHVTKTTRLNNNTNSKLRRKSILHTIRNSIASGADLPIENDNVVNLGDLHPNNRISLGSGAARVVNGPVTKNRNSMFSGRAERKPTESRHSVAKKTEKKINTRPPFR chain 2: MMASTSNDEEKLISTTDKYFIEQRNIVLQEINETMNSILNGLNGLNISLESSIAVGREFQSVSDLWKTLYDGLESLSDEAPIDEQPTLSQSKTK chain 3: MDSIDEQIAIKRKELQSLQKITSLTDGLKIQLTELNEQIKEMGMNADSVAQLMNNWDSIINNISQASLGLLQYAEGDYEIGPWKDSKKKESEQSNETGLEAQENDKNDEDNDEDEDLVPLPETMVRIRVDGNE chain 4: MEHNLSPLQQEVLDKYKQLSLDLKALDETIKELNYSQHRQQHSQQETVSPDEILQEMRDIEVKIGLVGTLLKGSVYSLILQRKQEQESLGSNSK chain 5: MENPHEQVQANILSRIIGNVKRLNESVAILNQELVTINNRNKNLEIMGAICDNYHSSVQFNLEATNNKKPPL chain 6: MSEQSQLDDSTIDKLIPQIFNEMRSNLNNTTNKFPKSTGGGASDNISANSNSIRSFNSITTQSLLKESESLDKITAMIKNVTAALKNNLPVYVNQVHEVCKSTNSILDSWINIHSQAGYIHKLMSDQTYLKLINDRLHNENVNTNDEDGSTLHNVIALKKKEILDLRQKLENRKGEKDAAPAKPPNQGLNPRYGVQSGRRPVPSAGISNNGRVRKTHVPASKRPSGIPRVTNRWTKPTASSSRKMFR chain 7: MDSASKEETLEKLDQEITVNLQKIDSNLSFCFHKITQDIIPHVATYSEICERIMDSTEWLGTMFQETGLVNLQANAAAPVGNAPVKSLVSNNVGIFPTSAEEASRQSQTDNGPNEADSAVHVNRDVHSMFNNDSIDDFHTANITSTGQILKLPDSSDEDTGSEAVPSREQTDLTGEGHGGADDEQDESTIQRQSRKRKISLLLQQQYGSSSSMVPSPIVPNKMRKQLAHEEHINNDGDNDDENSNNIESSPLKQGHHHPKGQADDNNEGPDEEESTKEVPKPGTIIHFSTNR chain 8: MTDALEQSVLALEGTVSVLKDSVESLKCANEPSTNLASTMLQTKRVFRLVPEYDVERSKLDLIEEVEPLVRTLGDKLRKSMGRMQRELDTLQQTYELNDLRLKKNISMDDDDALNSPDMGQEYEGRDADDVVMMASSTNEELEELKKLKEKKKQLENKLEILKQK chain 9: MGESLDRCIDDINRAVDSMSTLYFKPPGIFHNAILQGASNKASIRKDITRLIKDCNHDEAYLLFKVNPEKQSVSRRDGKEGVFDYVIKRDTDMKRNRRLGRPGEKPIIHVPKEVYLNKDRLDLNNKRRRTATTSGGGLNGFIFDTDLIGSSVISNSSSGTFKALSAVFKDDPQIQRLLYALENGSVLMEEESNNQRRKTIFVEDFPTDLILKVMAEVTDLWPLTEFKQDYDQLYHNYEQLSSKLRFIKKEVLLQDDRLKTMSQYHPSSSHDVAKIIRKEKDEIRRLEMEIANLQE chain 10: MNANKQRQYNQLAHELRELQTNLQETTKQLDIMSKQCNENLVGQLGKVHGSWLIGSYIYYMEQMLGKTQ	17	–
Dam1C/DASH outer-kinetochore complex in yeast cells (complex) chain 1: MSEDKAKLGTTRSATEYRLSIGSAPTSRRSSMGESSSLMKFADQEGLTSSVGEYNENTIQQLLLPKIRELSDSIITLDSNFTRLNFIHESLADLNESLGSLLYGIMSNSWCVEFSQAPHDIQDDLIAIKQLKSLEDEKNNLVMELSNMERGIKRKKDEQGENDLAKASQNKQFNQPLFPSSQVRKYRSYDNRDKRKPSKIGNNLQVENEEDYEDDTSSEASFVLNPTNIGMSKSSQGHVTKTTRLNNNTNSKLRRKSILHTIRNSIASGADLPIENDNVVNLGDLHPNNRISLGSGAARVVNGPVTKNRNSMFSGRAERKPTESRHSVAKKTEKKINTRPPFR chain 2: MMASTSNDEEKLISTTDKYFIEQRNIVLQEINETMNSILNGLNGLNISLESSIAVGREFQSVSDLWKTLYDGLESLSDEAPIDEQPTLSQSKTK chain 3: MDSIDEQIAIKRKELQSLQKITSLTDGLKIQLTELNEQIKEMGMNADSVAQLMNNWDSIINNISQASLGLLQYAEGDYEIGPWKDSKKKESEQSNETGLEAQENDKNDEDNDEDEDLVPLPETMVRIRVDGNE chain 4: MEHNLSPLQQEVLDKYKQLSLDLKALDETIKELNYSQHRQQHSQQETVSPDEILQEMRDIEVKIGLVGTLLKGSVYSLILQRKQEQESLGSNSK chain 5: MENPHEQVQANILSRIIGNVKRLNESVAILNQELVTINNRNKNLEIMGAICDNYHSSVQFNLEATNNKKPPL chain 6: MSEQSQLDDSTIDKLIPQIFNEMRSNLNNTTNKFPKSTGGGASDNISANSNSIRSFNSITTQSLLKESESLDKITAMIKNVTAALKNNLPVYVNQVHEVCKSTNSILDSWINIHSQAGYIHKLMSDQTYLKLINDRLHNENVNTNDEDGSTLHNVIALKKKEILDLRQKLENRKGEKDAAPAKPPNQGLNPRYGVQSGRRPVPSAGISNNGRVRKTHVPASKRPSGIPRVTNRWTKPTASSSRKMFR chain 7: MDSASKEETLEKLDQEITVNLQKIDSNLSFCFHKITQDIIPHVATYSEICERIMDSTEWLGTMFQETGLVNLQANAAAPVGNAPVKSLVSNNVGIFPTSAEEASRQSQTDNGPNEADSAVHVNRDVHSMFNNDSIDDFHTANITSTGQILKLPDSSDEDTGSEAVPSREQTDLTGEGHGGADDEQDESTIQRQSRKRKISLLLQQQYGSSSSMVPSPIVPNKMRKQLAHEEHINNDGDNDDENSNNIESSPLKQGHHHPKGQADDNNEGPDEEESTKEVPKPGTIIHFSTNR chain 8: MTDALEQSVLALEGTVSVLKDSVESLKCANEPSTNLASTMLQTKRVFRLVPEYDVERSKLDLIEEVEPLVRTLGDKLRKSMGRMQRELDTLQQTYELNDLRLKKNISMDDDDALNSPDMGQEYEGRDADDVVMMASSTNEELEELKKLKEKKKQLENKLEILKQK chain 9: MGESLDRCIDDINRAVDSMSTLYFKPPGIFHNAILQGASNKASIRKDITRLIKDCNHDEAYLLFKVNPEKQSVSRRDGKEGVFDYVIKRDTDMKRNRRLGRPGEKPIIHVPKEVYLNKDRLDLNNKRRRTATTSGGGLNGFIFDTDLIGSSVISNSSSGTFKALSAVFKDDPQIQRLLYALENGSVLMEEESNNQRRKTIFVEDFPTDLILKVMAEVTDLWPLTEFKQDYDQLYHNYEQLSSKLRFIKKEVLLQDDRLKTMSQYHPSSSHDVAKIIRKEKDEIRRLEMEIANLQE chain 10: MNANKQRQYNQLAHELRELQTNLQETTKQLDIMSKQCNENLVGQLGKVHGSWLIGSYIYYMEQMLGKTQ	–	17
